# Experimental data taken from PMC8647080, “Evolution of CPEB4 Dynamics Across its Liquid–Liquid Phase Separation Transition” (The Journal of Physical Chemistry. B, 2021).
# B1: spin labeled CPEB4NTD-C441S/G320C (domain or fragment, human, UniProt Q17RY0-2 1-448, looked up)
# chain: MGDYGFGVLVQSNTGNKSAFPVRFHPHLQPPHHHQNATPSPAAFINNNTAANGSSAGSAWLFPAPATHNIQDEILGSEKAKSQQQEQQDPLEKQQLSPSPGQEAGILPETEKAKSEENQGDNSSENGNGKEKIRIESPVLTGFDYQEATGLGTSTQPLTSSASSLTGFSNWSAAIAPSSSTIINEDASFFHQGGVPAASANNGALLFQNFPHHVSPGFGGSFSPQIGPLSQHHPHHPHFQHHHSQHQQQRRSPASPHPPPFTHRNAAFNQLPHLANNLNKPPSPWSSYQSPSPTPSSSWSPGGGGYGGWGGSQGRDHRRCLNGGITPLNSISPLKKNFASNHIQLQKYARPSSAFAPKSWMEDSLNRADNIFPFPDRPRTFDMHSLESSLIDIMRAENDTIKARTYGRRRGQSSLFPMEDGFLDDGRGDQPLHSGLGSPHSFSHQNGE
# modifications: nitroxide spin label on the introduced cysteine 320 (marked * in the paper)
# notes: also called C441S/G320C CPEB4NTD mutant; source: E. coli BL21(DE3), purified using the same protocol (Ni2+-NTA, Superdex-200)
# Target: the molecule itself
# Test: CW-EPR line shape of the spin label; X band, 2-45 °C, 10-112 μM, 100 mM NaCl, pH 8; spectra simulated with three components (I monomer, II and III in assemblies)
protein,measurement,value
B1,binding result,binds
